T1: PSGL-1(42-62) N-terminal peptide, sulfation state not told at the place (human, not fully specified; sulfation of Y46, Y48, Y51 not stated for these table columns)
T1 peptide: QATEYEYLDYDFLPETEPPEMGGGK

T2: Recombinant human PSGL-1(ECD)-hFc1 (R&D Systems, Cat. 3345-PS) (human, UniProt Q14242 42-305)
T2 construct: Bought; Gln42-Val295 counted on AAC50061; also called PSGL-1-Fc; PSGL-1-hFc1 chimera; not shown: human IgG1 Fc, Pro100-Lys330
T2 sequence: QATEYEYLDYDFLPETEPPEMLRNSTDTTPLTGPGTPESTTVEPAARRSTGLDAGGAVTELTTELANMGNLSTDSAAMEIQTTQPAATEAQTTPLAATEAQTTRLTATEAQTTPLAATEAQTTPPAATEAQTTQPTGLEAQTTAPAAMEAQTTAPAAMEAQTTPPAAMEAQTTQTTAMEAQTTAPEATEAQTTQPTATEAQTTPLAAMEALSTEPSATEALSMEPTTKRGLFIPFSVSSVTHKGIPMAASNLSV

T3: Biotin PSGL-1(42-62) peptide, unmodified (human, C-terminal Lys-biotin)
T3 construct: Residues 42-62 followed by GGGK-biotin; also called WT; wild-type
T3 peptide: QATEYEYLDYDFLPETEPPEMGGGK

T4: Biotin Y46,48,51(SO3) PSGL-1(42-62) peptide (human, sulfotyrosine at Y46, Y48 and Y51; C-terminal Lys-biotin)
T4 construct: also called fully sulfated N-terminal PSGL-1 peptide
T4 peptide: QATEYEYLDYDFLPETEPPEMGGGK

T5: Biotin sY51 PSGL-1(42-62) peptide (human, sulfotyrosine at Y51; C-terminal Lys-biotin)
T5 construct: also called Y51(SO3) PSGL-1(42-62)
T5 peptide: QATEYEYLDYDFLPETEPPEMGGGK

T6: Biotin sY46 PSGL-1(42-62) peptide (human, sulfotyrosine at Y46; C-terminal Lys-biotin)
T6 peptide: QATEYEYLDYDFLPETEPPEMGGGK

T7: Biotin sY48 PSGL-1(42-62) peptide (human, sulfotyrosine at Y48; C-terminal Lys-biotin)
T7 construct: also called sY48S
T7 peptide: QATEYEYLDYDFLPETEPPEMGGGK


Key:
[1] = molecular target: T1, PSGL-1(42-62) N-terminal peptide, …; experiment: binding to PSGL-1 42-62
[2] = molecular target: T2, Recombinant human PSGL-1(ECD)-hFc1 (R&D …); experiment: Octet tandem; competitor 18F17
Protocol: (§1) Antibody binning was performed by ForteBio Octet® using a tandem assay format, with anti-human IgG biosensor-immobilized PSGL-1(ECD)-hFc1 protein, binding of competitor mAb followed by analyte antibody. As competition controls, the same antibody was competed against itself, and mAb competition was performed bidirectionally.
(§2) Antibody binning by tandem octet was performed by immobilizing 10 ug/mL PSGL-1(ECD)-hFc1 (R&D Systems, Cat. #3345-PS) in PBS, pH 7.4, onto anti-human IgG capture biosensors (ForteBio, Cat. #18-5060), binding of 100 nM competitor antibody for 300 sec., followed by binding of 100 nM of analyte mAb for 300 s in kinetic buffer (0.1% BSA in PBS containing 0.02% tween 20 and 0.05% sodium azide, pH 7.4). Synagis (Johnson et al. (1997) J. Infect. Dis. 176:1215-1224) served as a negative control mAb for competition. An Fc quench step (0.25 mg/mL human IgG Fcl; BioXcell, Cat. #BE0096, in kinetic buffer) was included when human mAbs were tested to prevent high background from the antibodies binding to the anti-human IgG biosensor. Biosensor regeneration buffer consisted of 10 mM glycine, pH 2.0.

[3] = molecular target: T2, Recombinant human PSGL-1(ECD)-hFc1 (R&D …); experiment: Octet tandem; competitor 19N05
Protocol: as §1, §2

[4] = molecular target: T3, Biotin PSGL-1(42-62) peptide, unmodified; experiment: ELISA, plate-bound target
Protocol: (§3) Two ELISA methods were performed. One procedure detected mAb binding to its plate-immobilized target and the other measured the immobilized antibody's ability to capture biotinylated PSGL-1₄₂₋₆₂. […] The plate was incubated for 45 min at 37° C. Plates were washed 3 times with wash buffer (PBS containing 0.05% tween 20, pH 7.4) and a single concentration (2 to 500 nM) or serially diluted (0.002-100 nM) anti-PSGL-1 mAb was added (25 ul/well) in assay buffer into appropriate wells. The plate was incubated for 45 min at 37° C., washed 3 times, and an appropriate HRP-conjugated secondary antibody added (25 ul/well) (HRP goat anti-mouse or anti-human IgG). After 45 min incubation at 37° C., the plate was washed, and antibody bound to plate-immobilized target was determined at A450 nm using HRP substrate (3,3′,5,5′-etramethylbenzidine (TMB)). For each antibody, duplicate values were averaged and assay background was subtracted. Except for the following, ELISAs involving plate-immobilized mAb capturing of biotinylated PSGL-1₄₂₋₆₂ peptides was performed in the same manner as described above: 3 ug/mL/25 ul per well of mAb was coated directly onto microtiter plate wells; biotinylated unmodified or sulfotyrosine PSGL-1₄₂₋₆₂ was serially diluted (3 nM-3 uM) into appropriate wells, and antibody-bound peptide was detected using HRP-streptavidin (Jackson Immunoresearch, Cat. #016-030-084).

[5] = molecular target: T4, Biotin Y46,48,51(SO3) PSGL-1(42-62) …; experiment: ELISA, plate-bound target
Protocol: as §3

[6] = molecular target: T5, Biotin sY51 PSGL-1(42-62) peptide; experiment: capture ELISA; against 3 x sY peptide
Protocol: as §3

[7] = molecular target: T4, Biotin Y46,48,51(SO3) PSGL-1(42-62) …; experiment: capture ELISA; against 3 x sY peptide
Protocol: as §3

[8] = molecular target: T6, Biotin sY46 PSGL-1(42-62) peptide; experiment: capture ELISA; against 3 x sY peptide
Protocol: as §3

[9] = molecular target: T7, Biotin sY48 PSGL-1(42-62) peptide; experiment: capture ELISA; against 3 x sY peptide
Protocol: as §3

[10] = molecular target: T5, Biotin sY51 PSGL-1(42-62) peptide; experiment: ELISA, plate-bound mAb captures biotin peptide
Protocol: as §3

[11] = molecular target: T4, Biotin Y46,48,51(SO3) PSGL-1(42-62) …; experiment: ELISA, plate-bound mAb captures biotin peptide
Protocol: as §3

[12] = molecular target: T6, Biotin sY46 PSGL-1(42-62) peptide; experiment: ELISA, plate-bound mAb captures biotin peptide
Protocol: as §3

[13] = molecular target: T7, Biotin sY48 PSGL-1(42-62) peptide; experiment: ELISA, plate-bound mAb captures biotin peptide
Protocol: as §3

Binder | binding result [1] | % binding of analyte mAb [2] | % binding of analyte mAb [3] | EC50 [4] | EC50 [5] | EC50/EC50 3x(SO3)Y [6] | EC50/EC50 3x(SO3)Y [7] | EC50/EC50 3x(SO3)Y [8] | EC50/EC50 3x(SO3)Y [9] | EC50 [10] | fold stronger binding than to the unmodified peptide [10] | EC50 [11] | EC50 [12] | fold stronger binding than to the unmodified peptide [12] | EC50 [13]
18K07 (antibody, V domains shown, From mouse immunisation; only variable domains given) VH: QIQLVQSGPELKKPGETVKISCEASGYTFTTYGMNWVKQAPGKGLKWMGWINTYSGVPTYADDFQGRFAFSVETSATTAYLQINNLKNEDAATYFCARSDDTYYGFAYWGQGTLVTVSA VL: not shown | no binding | 91.4% | 0% |  |  |  |  |  |  |  |  |  |  |  | 
16E17 (antibody, V domains shown, From mouse immunisation; only variable domains given) VH: QIQLVQSGPELKKPGETVKISCKASGYAFTTYGMSWVKQAPGKGLKWMGWINTYSGVPKYADDFKGRFAFSLETSASTAYLHINNLKNEDTATYFCGRHYYGSSYFDYWGQGTTLTVSS VL: not shown | no binding | 93.8% | 5.1% |  |  |  |  |  |  |  |  |  |  |  | 
19N05 (antibody, V domains shown, From mouse immunisation; only variable domains given) VH: QIQLVQSGPELKKPGETVKISCKASGYTFTTYGMSWVKQAPGKGLKWMGWINTYSGVPTFADDFKGRFAFSLETSASTAYLQINNLKNEDTATFFCARNYYGNHYFDYWGQGTTLTVSS VL: DVQITQSPSYLAASPGETISINCRASNNINKYLAWYQEKPGKTNKLLIYSGSTLQSGIPSRFSGSGSGTDFTLTISSLEPEDFAMYHCQQHNYYPLTFGAGTKLELK | no binding | 65.3% | 69.4% |  |  |  |  |  |  |  |  |  |  |  | 
19L04 (antibody, IgG4, V domains shown, From mouse immunisation; only variable domains given) VH: QIQLVQSGPELKKPGETVKISCKASGYTFTTYGMSWVKQAPGKGLKWMGWINTYSGVPTYADDFKGRFAFSLETSASTAYLQINNLKIEDTATYFCARHYYGSHYFDYWGQGTTLTVSS VL: DIMMTQSPSSLAMSVGQKVTLRCKSSQSLLNSSNQKNYLAWYQQKPGQSPKLLVYFASTRESGVPVRFIGSGSGTDFTLTISSMQAEDLADYFCQQHYFSPLTFGAGTKLELK | no binding | 81.4% | 44.3% |  |  |  |  |  |  |  |  |  |  |  | 
03D07 (antibody, IgG4, V domains shown) VH: EVKLLESGGGLVQPGGSLRLSCAASGFTFSSYALSWVRQAPGKGLEWVSAISGSGGNTYYADSVKGRFTISRDNSKNTLYLQMNSLRAEDTAVYYCAKVVGATNYWGQGTLVTVSS VL: DIVMTQTPLSLPVTLGQPASISCRSSQSLVYSDGHTYLSWFHQRPGQSPRRLIYKVSIRDSGVPDRFSGSGSGTDFTLKISRVEAEDVGVYYCMQRLQIPLTFGGGTKVEIK |  |  |  | > 20 nM | 0.13 nM | ~5 fold | 1 fold | 25 fold | > 100 fold | ~2000 nM | ~10 fold | 39.4 nM | 971 nM | ~10 fold | > 3000 nM
10F01 (antibody, IgG4, V domains shown) VH: EVQLVQSGGGLVQPGGSLRLSCAASGFTFSSYAMSWVRQAPGKGLEWVSALRGGDGGTYHADSVKGRFTISGDSSKNTLYLQMNSLRAEDTAVYYCARRMVGAAYAFDIWGQGTMVTVSS VL: LPVLTQPHSVSESPGKTVTISCTRSSGSIADNFVQWYRQRPGSAPTTVIYEGDQRPSGVPGRFSGSIDSSSNSASLTISGLQTDDEADYYCQSFDSYNRRTHVVFGGGTKLTVL |  |  |  | > 500 nM | 0.13 nM | ~36 fold | 1 fold | ~2000 fold | ~2000 fold | 36.2 nM |  | ~1 nM | ~2000 nM |  | ~3000 nM
20I15 (antibody, V domains shown, From mouse immunisation; only variable domains given; also called 20115) VH: EVKLVESGGGLVQPGGSLSLSCAASGFTFTDYYMSWVRQPPGKALEWLGFIRNKANGYTTEYSASVKGRFTISRDNSQSILYLQMNALRAEDSATYYCARTYLRRGYFDVWGTGTTVTVSS VL: DIVLTQSPASLAVSLGQRATISCRASKSVSTSGYSYMHWFQQKPGQPPKLLIYLASNLESGVPARFSGSGSGTDFTLNIHPVEEEDAATYYCQHSRELPLTFGAGTKLELK |  |  |  | ~30 nM | 0.62 nM | ~10 fold | 1 fold | ~10 fold | ~10 fold | ~3000 nM |  | 292 nM | ~3000 nM |  | ~3000 nM

— US20220396632A1 (VERSEAU THERAPEUTICS, published 2022)
